B1: SurA-core: SurA construct lacking both PPIase domains (residues 172-389 deleted) (protein)
chain: APQVVDKVAAVVNNGVVLESDVDGLMQSVKLNAAQARQQLPDDATLRHQIMERLIMDQIILQMGQKMGVKISDEQLDQAIANIAKQNNMTLDQMRSRLAYDGLNYNTYRNQIRKEMIISEVRNNEVRRRITILPQEVESLAQQVGNQNDASDAAQKDRAYRMLMNRKFSEEAASWMQEQRASAYVKILSN
modifications: left off: His6, N-terminal, state not stated
B2: OmpX: unfolded E. coli outer membrane protein OmpX, mature sequence residues 24-171 (protein)
chain: ATSTVTGGYAQSDAQGQMNKMGGFNLKYRYEEDNSPLGVIGSFTYTEKSRTASSGDYNKNQYYGITAGPAYRINDWASIYGVVGVGYGKFQTTEYPTYKHDTSDYGFSYGAGLQFNPMENVALDFSYEQSRIRSVDVGTWIAGVGYRF

How the values were obtained:
OmpX = details: ~75 pM double-labelled OmpX, 30 μM SurA variant, 20 mM Tris-HCl, 0.1 M urea, 0.02% Tween-20, pH 8.0, ~21 °C; apo-OmpX ~0.85
Protocol: Samples were measured at a volume of 100 μL in an 18 well sample chamber (81817, Ibidi) with the focal spot 50 μm above the cover glass on a custom-built confocal microscope (Supplementary Methods) at room temperature (~21 °C). […] Aged Trolox was prepared by adding 1 mM of Trolox to measurement buffer and incubating the sample overnight at room temperature on a rotary shaker to dissolve before being filtered using a 0.22 μm pore size membrane. Tween-20 (0.02% v/v) was added to prevent non-specific absorption to the glass slide.
The ptu files from the SymPhoTime64 software were converted into HDF5 data files using phconvert v0.9 (available at https://github.com/Photon-HDF5/phconvert). Each of these files was then merged to create one file for each condition. […] Firstly, the background was independently calculated for every 60 s period of measurement. […]
BVA[68] was used to assay for dynamics on the ms timescale occurring during bursts. This analysis compares the expected variance in Eraw based on shot noise against the measured variance in Eraw in each individual burst (si). […] To calculate si, we segmented each burst into consecutive windows of 5 photons, and calculated the standard deviation of all windows within the burst. […]

SurA-WT = biological target: T1, SurA-WT (Escherichia coli, UniProt P0ABZ6); assay type: binding; details: pH 8
T1 construct: made in house; host or cells: E. coli BL21(DE3)
T1 sequence (P0ABZ6 other isoform, or with tags, fused parts or gaps): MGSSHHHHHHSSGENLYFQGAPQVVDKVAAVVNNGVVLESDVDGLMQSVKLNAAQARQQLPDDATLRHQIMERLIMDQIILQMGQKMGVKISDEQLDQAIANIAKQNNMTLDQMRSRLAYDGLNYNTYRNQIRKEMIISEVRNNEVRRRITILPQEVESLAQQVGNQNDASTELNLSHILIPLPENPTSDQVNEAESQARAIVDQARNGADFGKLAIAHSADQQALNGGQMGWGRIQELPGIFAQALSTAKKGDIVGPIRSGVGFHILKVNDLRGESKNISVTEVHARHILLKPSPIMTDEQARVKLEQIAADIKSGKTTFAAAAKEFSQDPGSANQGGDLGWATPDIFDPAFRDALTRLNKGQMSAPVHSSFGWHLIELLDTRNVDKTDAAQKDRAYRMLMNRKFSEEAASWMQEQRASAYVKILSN
Protocol: All NMR experiments were performed on a 950-MHz Bruker Ascend Avance III HD NMR spectrometer equipped with either a Bruker 3 mm TCI or 5 mm TXO triple-resonance cryogenically cooled probe. Peptide binding experiments were performed in 5 mM EDTA, 20 mM Tris-HCl, pH 8.0 with 5 % (v/v) D2O at 25 °C. Binding experiments using full-length OMP sequences also contained 0.8 M urea. Data was acquired for ~16 h with the exception of OMP-containing experiments which were acquired for ~5 h. […] (2D ^1H-^13C SOFAST-HMQC)[70]. […] Errors in the intensity ratios for each peak between two spectra were obtained by propagating the errors according to:1 δR=R*δX/X+δY/Y where δR is the error in the intensity ratio, |R| is the value of the intensity ratio, X and Y are the intensity values for the peak in the first and second spectrum, respectively, and δX and δY are the noise floor values for the first and second spectrum, respectively.
Z-scores for intensity ratio and CSP data were calculated using:3 Zi=xi−μ/σ where xi is the value for a particular peak, and µ and σ are the mean and standard deviation for all peaks, respectively.
For assignment of SurA-WT Ile and Met residues (43 in total) each residue was individually mutated (Supplementary Table 3), and the effect of the mutation assessed by methyl-TROSY NMR. Samples contained 5–70 µM SurA variant. […]

SurA = details: read-out: Kd, binding of full-length unfolded OmpX to SurA; cited from earlier work
From the text: (where Ar is an aromatic residue and X is any amino acid), or aromatic-enriched sequences containing an Ar-X-Ar-X-Pro motif. […] Both of these types of peak changes (shifts and/or broadening), can report on binding or conformational changes caused by binding at the location of the corresponding ^13CH3 probe[73],[74].

Molecule | Maximum of the raw FRET distribution (Eraw) of OmpX bound to SurA variant (OmpX) | Interaction of unfolded OMP with SurA-WT domains by methyl-TROSY NMR, in words (SurA-WT) | Kd (SurA)
B1 | ~ 0.45 |  | 
B2 |  | regions in the core and P1 domains directly interact with OmpX, while P2 is largely uninvolved in OmpX binding | ~1 µM

Source: article PMC11401910, “Dual client binding sites in the ATP-independent chaperone SurA” (Nature Communications, 2024)
